Test results: PMC3644619

Target: hormone-binding domain (HBD) of ERα
Assay: two-hybrid

Sequence of PNRC1d (Q12796 186-327): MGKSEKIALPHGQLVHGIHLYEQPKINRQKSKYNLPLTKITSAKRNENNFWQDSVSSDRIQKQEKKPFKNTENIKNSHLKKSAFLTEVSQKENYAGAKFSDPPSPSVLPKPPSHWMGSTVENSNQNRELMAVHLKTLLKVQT
Sequence of hormone-binding domain (HBD) of ERα (P03372 whole entry, the tested form may be a part): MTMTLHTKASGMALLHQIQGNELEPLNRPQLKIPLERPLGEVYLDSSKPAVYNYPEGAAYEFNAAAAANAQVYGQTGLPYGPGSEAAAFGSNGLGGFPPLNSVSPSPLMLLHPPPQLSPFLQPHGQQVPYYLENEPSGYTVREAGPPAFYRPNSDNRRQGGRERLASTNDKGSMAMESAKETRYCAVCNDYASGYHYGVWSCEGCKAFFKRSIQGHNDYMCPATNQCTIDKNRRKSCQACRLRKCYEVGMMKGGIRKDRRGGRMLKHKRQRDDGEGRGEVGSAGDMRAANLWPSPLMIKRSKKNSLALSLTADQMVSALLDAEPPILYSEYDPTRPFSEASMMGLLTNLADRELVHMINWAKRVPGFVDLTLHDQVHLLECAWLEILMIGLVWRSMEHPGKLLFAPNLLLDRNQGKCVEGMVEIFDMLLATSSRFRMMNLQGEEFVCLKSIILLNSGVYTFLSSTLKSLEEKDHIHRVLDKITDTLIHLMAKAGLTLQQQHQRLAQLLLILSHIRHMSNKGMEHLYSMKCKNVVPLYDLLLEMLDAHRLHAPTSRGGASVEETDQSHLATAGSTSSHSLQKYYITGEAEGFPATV

Substance “PNRC1d (from UniProt Q12796 186-327) (natural protein)” has a fold increase of affinity compared to fl PNRC (two-hybrid β-galactosidase) of over 10 fold.
